{"source": "paper PMC3745516", "target": "CTEN (UniProt Q8IZW8)", "experiment": "anti-Flag co-IP, anti-HA blot", "conditions": "reference: HA-c-Cbl wild type; sites Y774"}
{"substance": "c-Cbl (from UniProt P22681) Y774F", "values": [{"measurement": "binding against the reference", "value": "lost"}]}
